Laboratory results taken from US7790845B2, “Bacterial ion channel” (Children's Medical Center Corporation, priority 2001, dated 2010).
Like-named read-outs stand apart in the source and are kept apart here. Marks after values point to notes of the source that are not given here.

Tests used:
Format in all cases: cell-based
[1] = target: NaChBac (Halalkalibacterium halodurans (Bacillus halodurans), UniProt Q9KCR8, S273L); experiment: cell-based
[2] = test system: CHO-K1 cells or COS-7 cells; experiment: Ca2+/Na+ selectivity of wt and mutant NaChBac, reversal potential under bi-ionic conditions (Example 2); details: for PCa/PNa: external solution 80 NMDG-Cl, 50 CaCl2, 20 HEPES
Experimental: (§1) Unless otherwise stated, the pipette solution contained (in mM); 147 Cs, 120 methanesulfonate, 8 NaCl, 10 EGTA, 2 Mg^2+-adenosine triphosphate, and 20 HEPES (pH 7.4). Bath solution contained (in mM); 140 NaCl, 10 CaCl2, 5 KCl, 10 HEPES (pH 7.4), and 10 glucose. For some experiments, NaCl was isotonically replaced by CaCl2.
For reversal potential measurements to determine the relative permeabilities of Na^+ and Ca^2+, the internal pipette solution contained (in mM): 100 mM Na-Gluconate, 10 NaCl, 10 EGTA, 20 HEPES-Na (pH 7.4 adjusted with NaOH, [Na^+]total=140). The external solution was (in mM): 140 NMDG-Cl, 10 CaCl2, 20 HEPES (pH 7.4 adjusted with HCl) or 80 NMDG-Cl, 50 CaCl2, and 20 HEPES. The fast kinetics and small current amplitude of SKM1 in 10 mM [Ca^2+]o necessitated the use of 50 mM [Ca^2+]o for accurate determination of Erev. The permeability ratio of Ca2+ was estimated according to the following equation: PCa/Px=asi(exp(ErevF/RT)[(exp(ErevF/RT)+1]/(4ase) where R, T, F, and Erev are the gas constant, absolute temperature, Faraday constant, and reversal potential, respectively, and x represents Cs^+ or Na^+ (i, internal; e, external) (Hille 2001). For calculations of membrane permeability, activity coefficients for Ca^2+, Cs^+ and Na^+ were estimated as follows: as=γs[Xs] where activity, as, is the effective concentration of an ion in solution, s related to the nominal concentration [Xs] by the activity coefficient, γs·γs was calculated from the Debye-Hückel equation: log γs=−0.51*zs^2√μ/[1+3.8ασ√μ] where μ is the ionic strength of the solution, zs is the charge on the ion, and αs is the effective diameter of the hydrated ion in nanometers (nm). The calculated activity coefficients were γ(Cs)i=0.70, γ(Ca)e=0.331, γ(Na)i=0.75 and γ(Na)e=0.73. The liquid junction potentials were measured using a salt bridge as described by Neher (Neher 1992) and these measurements agreed within 3 mV to those calculated by the JPCalc program (P. Barry) within Clampex (Axon Instruments, Union City, Calif.).
Reversal potentials of the NaChBac mutants were measured under bi-ionic conditions as described in the Methods. […] The average peak current amplitude measured at 0 mV obtained in 10 mM Ca^2+ Tyrode's solution or in 105 mM Ca^2+ solution is shown in FIG. 7B and normalized to the current amplitude measured in 10 mM Ca^2+ solution (FIG. 7C).
Relative permeability (PCa/PNa) was calculated as described in the Methods and Table 1. Since PCa/PNa had not been described for native Nav channels under these specific conditions, we also measured the relative permeability for SKM1, a skeletal muscle Na^+-selective channel (SKM1; Kraner, Rich et al. 1998) was expressed in COS and CHO cells and examined under identical conditions as NaChBac and similar to its mutants; Table 1).

[3] = test system: CHO-K1 or COS-7 cells; experiment: Single channel properties of NaChBac, inside-out patch
From the text: The single channel properties of NaChBac were studied in the inside-out patch configuration. Solutions were the same as used in whole-cell recording except that the pipette and bath solutions were reversed. The unitary single channel conductance was best fit with a slope of 12 pS±1 pS (n=7 cells). Consistent with the whole-cell current, single channels were activated by depolarization and both open and closed times varied as a function of voltage (not shown). An ensemble average of single channel currents from 5 cells resembled whole cell INaChBac with τact=10±3.5 ms and τinact=203±43 ms (FIG. 2D).

[4] = test system: CHO-K1 or COS-7 cells; experiment: Ion selectivity and relative permeability of NaChBac (Example 1)
From the text: The internal pipette solution used in determining the relative permeability of K^+ and Ca^2+ contained (in mM) 133 Cs-methanesulfonate, 5 CsCl, 10 EGTA, 10 HEPES (pH adjust to 7.2 with CsOH). External solution for K^+ permeability experiments contained 142 KCl, 10 HEPES, 10 glucose (pH 7.3 adjusted with KOH). External solution for Ca^+ permeability determinations contained 105 CaCl2, 10 HEPES, 20 glucose (pH 7.3, adjusted with Ca(OH2). The external solution used to study Ma^+ permeability contained (in mM): 140 NaCl, 5CsCl, 10 HEPES, 10 glucose (pH 7.3, adjusted with NaOH). Internal solutions were the same as described in the Detection of Current example. The relative permeability of Cs^+ versus Na^+ was calculated according to: PCs/PNa=([Na]o−[Na]iexp(ErevF/RT)/([Cs]iexp(Erev/RT)/([Cs]o) (1)
The relative permeabilities of K^+ and Ca^2+ were evaluated under bi-ionic conditions, and the relative permeability of K^+ and Ca^2+ to Cs^+ was calculated according to the following equations: Pk/PCs=[Cs]iexp(ErevF/RT)/[K]o (2) PCa/Pcs=([Cs]iexp(ErevF/RT){exp(ErevR/RT)+1}/4[Ca]o) (3)
INaChBac was weakly permeant to Ca^2+; no significant difference in current was observed by sequential perfusion with bath solution containing 1 and 10 mM [Ca^2+]o (FIG. 3B). In isotonic [Ca^2+]o (cations replaced with 105 mM Ca^2), in the inward current was <6% of that in normal [Na^+] (7.6±0.9 pA/pF at −10 mV, n=8; FIG. 3B). In contrast, INaChBac, amplitude correlated well with [Na^+]o (FIG. 3C, D). […] To estimate the relative ion selectivity of the channel, we measured changes in reversal potential while changing ionic composition. The calculated relative selectivity (±SEM) of NaChBac based on measured Erev was: PNa/PCa=72±10 (n=12); PNa/PCs=383±56(n=8); PNa/PK=171±16(n=8). INaCahBac selectivity for Na^+ is at least as high as traditional Nav channels (1, 14).

[5] = test system: CHO-K1 cells or COS-7 cells; experiment: Expression, voltage- and time-dependence of wt and mutant NaChBac (Example 2)
From the text: NaChBac was cloned from Bacillus halodurans C-125 DNA by the polymerase chain reaction (PCR; BAB05220) (Ren, Navarro et al. 2001). The NaChBac construct containing an open reading frame of 274 amino acid residues was subcloned into a pTracer-CMV2 vector (Invitrogen, Carlsbad, Calif.) containing enhanced green fluorescent protein (eGFP). The skeletal muscle Na^+ channel SKM1 (M26643) was used in comparison to NaChBac under identical recording conditions and determinations of permeability ratios. Mutations were introduced into the NaChBac cDNA by site-directed mutagenesis (Quickchange™ site-directed mutagenesis kit; Stratagene; La Jolla, Calif.). All mutations were confirmed by DNA sequencing and restriction digestion. Wild-type NaChBac and mutant cDNAs were transfected into CHO-K1 cells or COS-7 cells with LipofectAMINE 2000 (Life Technologies, Rockville, Md.). Transfected cells were identified by fluorescence microscopy and membrane currents were recorded 24 to 48 hours after transfection.
as §1
The voltage dependence of NaChBac and mutants channel activation was determined from a holding potential of −100 mV. Instantaneous tail current were measured at −100 mV after a test potential of 40 ms duration. Normalized tail current amplitude was plotted vs. test potentials and fitted with a Boltzmann function. Measurements of steady state inactivation for NaChBac and mutants channel were resolved using 2 s prepulses and 1 s test pulse to −10 mV, 0 mV or +20 mV depending on the mutant's peak voltage. Cells were held at −100 mV for 20 s between pulses to allow the recovery from inactivation. Normalized test current amplitude was plotted vs. prepulse potential and fitted with a Boltzmann function. The activation and steady state inactivation curve were fitted by the Boltzmann equation: I=Imax−(Imax−Imin)/(1+exp((V−V1/2)/k)) where Imax and Imin are the maximum and minimum current values, V is the test voltage, V1/2 is the voltage activation midpoint and k is the slope factor.
Whole-cell currents were recorded using an Axopatch 200B (Axon Instruments, Union City, Calif.) amplifier. Data were digitized at 10 or 20 kHz, and digitally filtered off-line at 1 kHz. Patch electrodes were pulled from borosilicate glass and had resistances of 2-5 MΩ. All experiments were conducted at 22°±2° C. For CHO cells, cell capacitance was 7.6±0.3 pF and for COS-7 cells was 13.9±0.6 pF. […] Series resistance (Rs) was compensated up to 90% to reduce all series resistance errors to <5 mV. Cells in which […] were discarded. Pooled data are presented as means±SEM. Statistical comparisons were made using two-way analysis of variance (ANOVA) and two-tailed t-test with Bonferroni correction; P<0.05 indicated statistical significance.

[6] = test system: CHO-K1 or COS-7 cells; experiment: Whole-cell current, activation, inactivation and recovery of NaChBac (Example 1)
[7] = calculated from measured Erev, n=8

Molecule: [Cd+2] [Cd^2+]
- reduction of the channel current [1]: reduced the channel current to various degrees

Molecule: [Co+2] [Co^2+]
- reduction of the channel current [1]: reduced the channel current to various degrees

Molecule: [Ni+2] [Ni^2+]
- IC50 ([1]; read-out: concentration of agent needed to block INaChBac by 50% (IC50)): 720 µM

Molecule: COCC(=O)O[C@]1(CCN(C)CCCc2nc3ccccc3[nH]2)CCc2cc(F)ccc2[C@@H]1C(C)C [mibefradil]
- IC50 [1]: 22 µM
- sensitivity of INaChBac to the blocker (figure legend) [1]: relatively insensitive

Molecule: COC(=O)C1=C(C)NC(C)=C(C(=O)OC)C1c1ccccc1[N+](=O)[O-] [nifedipine, Nifedipine]
- IC50 [1]: 2.2 µM

Molecule: COCCOC(=O)C1=C(C)NC(C)=C(C(=O)OC(C)C)C1c1cccc([N+](=O)[O-])c1 (stereo not drawn) [nimodipine]
- IC50 [1]: 1 µM

Molecule: NC1=N[C@H](O)[C@H]2[C@H]3O[C@]4(O)O[C@@H]([C@@H](O)[C@@]2(N1)[C@@H]4O)[C@]3(O)CO [tetrodotoxin, Tetrodotoxin]
- block of INaChBac [1]: completely insensitive
- sensitivity of INaChBac to the blocker (figure legend) [1]: insensitive

Molecule: SKM1: skeletal muscle Na+ channel SKM1 (M26643), used in comparison to NaChBac [reference compound]
- PCa/PNa [2]: 0.32 ± 0.07 (n = 8)^c

Molecule: ω-Agatoxin IVA
- block of INaChBac [1]: ineffective

Molecule: ω-Conotoxin GVIA
- block of INaChBac [1]: ineffective

B1: NaChBac: bacterial voltage-sensitive Na+-selective ion channel from Bacillus halodurans, 274 amino acids, SEQ ID NO: 1; pore residues 190-195 LESWAS (protein)
chain: MKMEARQKQNSFTSKMQKIVNHRAFTFTVIALILFNALIVGIETYPRIYADHKWLFYRIDLVLLWIFTIEIAMRFLASNPKSAFFRSSWNWFDFLIVAAGHIFAGAQFVTVLRILRVLRVLRAISVVPSLRRLVDALVMTIPALGNILILMSIFFYIFAVIGTMLFQHVSPEYFGNLQLSLLTLFQVVTLESWASGVMRPIFAEVPWSWLYFVSFVLIGTFIIFNLFIGVIVNNVEKAELTDNEEDGEADGLKQEISALRKDVAELKSLLKQLK
modifications: Bacillus Halodurans
notes: pore residues 190-195 LESWAS
- τact of ensemble average of single channel currents ([3]; 5 cells): 10 ± 3.5 ms
- τinact of ensemble average of single channel currents ([3]; 5 cells): 203 ± 43 ms
- unitary single channel conductance ([3]; inside-out patch, n=7 cells): 12 pS
- slope of Erev as a function of [Na+]o [4]: 57.8 mV/decade
- inward current in isotonic [Ca2+]o relative to that in normal [Na+] ([4]; 105 mM Ca2+): < 6%
- peak current ([4]; 140 mM [Na+]o/1 mM [Ca2+]o): 1430 pA
- current density ([4]; 140 mM [Na+]o/1 mM [Ca2+]o, n=8): 135.9±11 pA/pF
- relative selectivity PNa/PCs [4, 7]: 383±56
- relative selectivity PNa/PK [4, 7]: 171±16
- relative selectivity PNa/PCa ([4]; calculated from measured Erev, n=12): 72±10
- peak current ([4]; isotonic [Ca2+]o): 87 pA
- current density ([4]; isotonic [Ca2+]o (105 mM Ca2+), −10 mV, n=8): 7.6±0.9 pA/pF
- current in COS-7 cells relative to CHO-K1 cells [5]: 4 to 6 times
- GFP expressing/transfected cells with substantial or detectable currents ([5]; 24-48 hours after transfection): More than 98%
- V1/2 act ([5]; Boltzmann fit of tail currents): −22 mV
- τact ([5]; membrane voltage −10 mV): 12.9 ± 0.4^a ms
- τinact ([5]; membrane voltage −10 mV): 166.0 ± 13^a ms
- kact ([5]; slope factor of activation): 7 mV/e fold
- V1/2 inact ([5]; steady state inactivation, 2 s prepulses): −40 mV
- voltage of 50% steady-state inactivation [6]: −40 mV
- activation τ ([6]; at −10 mV, n=32): 12.9 ± 0.4 ms
- inactivation τ ([6]; at −10 mV, n=32): 166 ± 13 ms
- reversal potential of INaChBac ([6]; whole-cell, ENa=+72 mV): +70 mV
- current in 10 mM Ca2+/NMDG solution compared to 10 mM Ca2+ solution with Na+ [2]: almost undetectable
- current on replacing 140 mM Na+/10 mM Ca2+ solution by isotonic (105 mM) Ca2+ solution [2]: practically undetectable
- PCa/PNa ([2]; listed as wt NaChBac): 0.15
- current in 10 mM Ca2+/NMDG solution compared to 10 mM Ca2+ solution with Na+ ([2]; listed as wt NaChBac): virtually eliminated
